Molecular target: NKG2D ligand MIC-A and MIC-B molecules on tumor cells
Assay: cell-based or functional assay

specific lysis activity (CCK-8), A549 cells, effector:target 0.5:1: 21% | specific lysis activity (CCK-8), A549 cells, effector:target 1:1: 30% | specific lysis activity (CCK-8), H1299 cells, effector:target 0.5:1: 39% | specific lysis activity (CCK-8), H1299 cells, effector:target 1:1: 80% | specific lysis activity (CCK-8), MCF-7 cells, effector:target 0.5:1: 43% | specific lysis activity (CCK-8), MCF-7 cells, effector:target 1:1: 56% | specific lysis activity (CCK-8), MDMB-231 cells, effector:target 0.5:1: 7% | specific lysis activity (CCK-8), MDMB-231 cells, effector:target 1:1: 14% | specific lysis activity (CCK-8), SW-480 cells, effector:target 0.5:1: 8% | specific lysis activity (CCK-8), SW-480 cells, effector:target 1:1: 16%
Substance: fusion protein NKG2D-CD8αhinge-CD8TM-4-1BB-CD3ζ (chimeric antigen receptor expressed on NK-92 cells)
